Data published in US20240132624A1 (Ablynx, published 2024).

Assays:
cyno FcRn/b2M = target: T1, cyno FcRn/b2M (cyno, UniProt Q8SPV9 24-297; Q8SPW0 21-119, biotinylated); test: SPR pH 6.0; pH 6.0; off-rate of periplasmic extract, cyno FcRn
T1 construct: bought recombinant biotinylated protein (Immunitrack ITF05 or ACRO FCM-C82W5); also called cFcRn; cFcRn/cb2M
Protocol: (§1) All kinetic measurements have been performed on ProteOn XPR36 (BioRad Laboratories, Inc.), MASS-2 (Sierra sensors, Gmbh) or SPR-32 (Bruker Corporation). […] The phytip purified periplasmic extracts were diluted 1:10 in running buffer (CPA+150 mM NaCl+0.005% Tw20 at pH 5.5, pH 6.0 or pH 7.4) and injected over the ligand surfaces (association: 120 s at 45 μL/min; dissociation: 600s-3600 s at 45 μL/min). Experiments were carried out at 25° C.

human FcRn/b2M = target: T2, human FcRn/b2M (human, UniProt P61769 21-119, biotinylated); test: SPR pH 6.0; pH 6.0; off-rate of periplasmic extract, human FcRn
T2 construct: bought recombinant biotinylated protein (ACRO FCM-H82W4 or Immunitrack ITF01); also called hFcRn; hFcRn/hb2M
Protocol: as §1

T1 sequence (Q8SPV9 24-297 limits assumed, chain 1 of 2): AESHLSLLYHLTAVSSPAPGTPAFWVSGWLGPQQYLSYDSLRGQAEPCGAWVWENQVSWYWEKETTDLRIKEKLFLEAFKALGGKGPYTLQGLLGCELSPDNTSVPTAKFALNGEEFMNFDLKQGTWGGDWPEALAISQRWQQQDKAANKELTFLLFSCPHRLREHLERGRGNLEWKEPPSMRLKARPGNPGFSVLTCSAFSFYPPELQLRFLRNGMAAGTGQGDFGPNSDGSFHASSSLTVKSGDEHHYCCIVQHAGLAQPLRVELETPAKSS
T1 sequence (Q8SPW0 21-119 limits assumed, chain 2 of 2): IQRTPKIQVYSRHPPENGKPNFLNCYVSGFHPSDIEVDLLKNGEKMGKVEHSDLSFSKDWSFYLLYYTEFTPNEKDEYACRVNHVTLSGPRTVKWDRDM

koff (cyno FcRn/b2M): 0.0093 s⁻¹
koff (human FcRn/b2M): 0.012 s⁻¹
B1: T0263018B11 T96E (VHH, name in Kabat numbering)
VHH: EVQLVESGGGVVQPGGSLRLSCAASGFTFSSYAMYWVRQAPGKGLEWVSAISSGGGSTDYADSVKGRFTISRDNSKNTLYLQMNSLRPEDTALYYCAADELYTSLTWYSYWGQGTLVTVSS
notes: FLAG3-His6 tagged
